How the values were obtained:
Experiment in all cases: holdup assay
Set-up in all cases: key: below the threshold = too weak to quantify, mostly under pKd 3.1 to 4
Details in all cases: plain residues with an end cap or a label only (N-terminal biotin on a linker: ado-ado)
[1] = target: GORASP1, Q9BQQ3
[2] = target: T1, DFNB31_1, Q9P202
T1 sequence (Q9P202 135-233, limits assumed, looked up): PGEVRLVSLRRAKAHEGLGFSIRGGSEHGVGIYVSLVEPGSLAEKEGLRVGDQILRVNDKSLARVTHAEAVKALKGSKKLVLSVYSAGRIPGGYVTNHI

[3] = target: FRMPD2_3, Q68DX3
Sequence of FRMPD2_3, Q68DX3 (Q68DX3 1073-1166): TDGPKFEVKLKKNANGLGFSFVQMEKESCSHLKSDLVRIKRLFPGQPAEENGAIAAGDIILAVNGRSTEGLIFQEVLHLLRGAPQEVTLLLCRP

[4] = target: FRMPD3, Q5JV73
Sequence of FRMPD3, Q5JV73 (Q5JV73 12-100): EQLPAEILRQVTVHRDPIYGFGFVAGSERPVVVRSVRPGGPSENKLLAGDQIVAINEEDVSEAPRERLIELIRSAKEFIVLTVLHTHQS

[5] = target: T2, APBA2_1, Q99767
T2 sequence (Q99767 563-664, limits assumed, looked up): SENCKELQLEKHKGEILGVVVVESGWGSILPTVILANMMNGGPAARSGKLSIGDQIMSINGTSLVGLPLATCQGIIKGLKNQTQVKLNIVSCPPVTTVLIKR

[6] = target: T3, APBA2_2, Q99767
T3 sequence (Q99767 654-744, limits assumed, looked up): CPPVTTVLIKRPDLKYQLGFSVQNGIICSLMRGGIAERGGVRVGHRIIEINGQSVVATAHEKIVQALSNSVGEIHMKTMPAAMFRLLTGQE

[7] = target: PARD3_3, Q8TEW0
Sequence of PARD3_3, Q8TEW0 (Q8TEW0 582-685): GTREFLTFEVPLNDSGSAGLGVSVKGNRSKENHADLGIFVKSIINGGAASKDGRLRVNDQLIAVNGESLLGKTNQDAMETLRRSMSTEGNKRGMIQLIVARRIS

[8] = target: HTRA2, O43464
Sequence of HTRA2, O43464 (O43464 355-458): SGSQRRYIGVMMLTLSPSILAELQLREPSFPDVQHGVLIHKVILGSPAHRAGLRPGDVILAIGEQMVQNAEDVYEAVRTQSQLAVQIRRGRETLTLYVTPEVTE

[9] = target: T4, PDZRN3_1, Q9UPQ7
T4 sequence (Q9UPQ7 244-349, limits assumed, looked up): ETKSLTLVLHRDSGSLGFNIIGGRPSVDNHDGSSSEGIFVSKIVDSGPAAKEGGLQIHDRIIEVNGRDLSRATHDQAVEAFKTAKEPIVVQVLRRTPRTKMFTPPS

[10] = target: Inadl_2, Q8NI35
Sequence of Inadl_2, Q8NI35 (Q8NI35 238-335): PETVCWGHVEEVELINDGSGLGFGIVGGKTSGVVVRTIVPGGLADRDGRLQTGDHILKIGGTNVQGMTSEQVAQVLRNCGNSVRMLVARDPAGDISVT

[11] = target: T5, PARD3B_1, Q8TEW8
T5 sequence (Q8TEW8 196-299, limits assumed, looked up): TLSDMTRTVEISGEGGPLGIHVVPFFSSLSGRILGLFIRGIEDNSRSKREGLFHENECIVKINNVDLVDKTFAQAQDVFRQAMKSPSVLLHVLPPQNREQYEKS

[12] = target: LNX1_1, Q8TBB1
Sequence of LNX1_1, Q8TBB1 (Q8TBB1 261-371): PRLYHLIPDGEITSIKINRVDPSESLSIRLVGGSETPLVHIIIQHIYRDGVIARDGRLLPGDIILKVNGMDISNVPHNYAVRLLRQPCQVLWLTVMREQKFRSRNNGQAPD

[13] = target: DLG4_1, P78352
Sequence of DLG4_1, P78352 (P78352 62-152): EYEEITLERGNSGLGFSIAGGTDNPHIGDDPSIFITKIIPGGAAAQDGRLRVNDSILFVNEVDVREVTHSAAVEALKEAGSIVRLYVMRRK

[14] = target: T6, SNTG2, Q9NY99
T6 sequence (Q9NY99 68-166, limits assumed, looked up): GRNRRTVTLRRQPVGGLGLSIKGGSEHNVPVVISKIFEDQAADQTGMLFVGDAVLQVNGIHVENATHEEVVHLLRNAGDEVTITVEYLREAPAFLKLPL

[15] = target: MAGI1_1, Q96QZ7
Sequence of MAGI1_1, Q96QZ7 (Q96QZ7 1-106): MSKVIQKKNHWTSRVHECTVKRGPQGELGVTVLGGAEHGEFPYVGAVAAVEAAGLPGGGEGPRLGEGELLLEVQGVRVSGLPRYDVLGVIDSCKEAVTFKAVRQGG

[16] = target: T7, TIAM2, Q8IVF5
T7 sequence (Q8IVF5 885-986, limits assumed, looked up): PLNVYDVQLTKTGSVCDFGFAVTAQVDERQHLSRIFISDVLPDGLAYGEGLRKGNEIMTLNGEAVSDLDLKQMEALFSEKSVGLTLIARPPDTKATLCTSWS

[17] = target: GRIP2_5, Q9C0E4
Sequence of GRIP2_5, Q9C0E4 (Q9C0E4 544-642): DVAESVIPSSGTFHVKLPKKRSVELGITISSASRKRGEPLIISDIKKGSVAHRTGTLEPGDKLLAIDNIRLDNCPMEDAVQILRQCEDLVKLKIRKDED

[18] = target: GRIP2_4, Q9C0E4
Sequence of GRIP2_4, Q9C0E4 (Q9C0E4 446-548): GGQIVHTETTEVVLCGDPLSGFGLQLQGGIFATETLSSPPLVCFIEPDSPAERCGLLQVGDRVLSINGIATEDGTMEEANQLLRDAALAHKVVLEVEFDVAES

[19] = target: GRIP2_6, Q9C0E4
Sequence of GRIP2_6, Q9C0E4 (Q9C0E4 648-740): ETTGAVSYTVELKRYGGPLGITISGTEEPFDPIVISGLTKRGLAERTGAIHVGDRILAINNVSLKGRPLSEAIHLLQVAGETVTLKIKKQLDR

[20] = target: T8, GRIP1_2, Q9Y3R0
T8 sequence (Q9Y3R0 145-248, limits assumed, looked up): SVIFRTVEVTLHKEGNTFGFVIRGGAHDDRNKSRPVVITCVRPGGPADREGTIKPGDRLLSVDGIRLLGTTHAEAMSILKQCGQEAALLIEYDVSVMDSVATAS

[21] = target: NHERF2_2, Q15599
Sequence of NHERF2_2, Q15599 (Q15599 142-238): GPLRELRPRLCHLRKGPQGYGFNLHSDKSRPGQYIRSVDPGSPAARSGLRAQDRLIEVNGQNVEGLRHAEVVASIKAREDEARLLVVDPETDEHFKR

[22] = target: LNX1_2, Q8TBB1
Sequence of LNX1_2, Q8TBB1 (Q8TBB1 371-470): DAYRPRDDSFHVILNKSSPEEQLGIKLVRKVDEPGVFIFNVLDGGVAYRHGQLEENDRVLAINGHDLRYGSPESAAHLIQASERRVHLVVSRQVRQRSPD

[23] = target: LAP2, Q96RT1
Sequence of LAP2, Q96RT1 (Q96RT1 other isoform, or with tags, fused parts or gaps): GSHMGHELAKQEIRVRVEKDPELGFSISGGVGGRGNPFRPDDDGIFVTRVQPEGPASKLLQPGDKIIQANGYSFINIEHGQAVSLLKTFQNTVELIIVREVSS

[24] = target: T9, NHERF3_1, Q5T2W1
T9 sequence (Q5T2W1 4-100, limits assumed, looked up): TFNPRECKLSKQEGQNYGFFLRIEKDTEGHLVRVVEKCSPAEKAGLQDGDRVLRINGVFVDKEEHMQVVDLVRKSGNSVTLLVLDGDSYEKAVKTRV

[25] = target: GRIP2_3, Q9C0E4
Sequence of GRIP2_3, Q9C0E4 (Q9C0E4 238-339): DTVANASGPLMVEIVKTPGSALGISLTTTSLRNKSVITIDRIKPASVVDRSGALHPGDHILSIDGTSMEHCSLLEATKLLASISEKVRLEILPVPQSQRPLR

[26] = target: T10, PTPN13_1, Q12923
T10 sequence (Q12923 1088-1188, limits assumed, looked up): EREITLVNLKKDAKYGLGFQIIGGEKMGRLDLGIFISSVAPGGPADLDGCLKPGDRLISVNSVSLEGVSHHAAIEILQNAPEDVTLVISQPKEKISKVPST

[27] = target: T11, MPDZ_10, O75970
T11 sequence (O75970 1624-1722, limits assumed, looked up): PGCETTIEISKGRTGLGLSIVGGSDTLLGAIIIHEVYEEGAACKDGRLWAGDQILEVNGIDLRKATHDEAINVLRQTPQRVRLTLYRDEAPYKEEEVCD

Sequence of GORASP1, Q9BQQ3 (Q9BQQ3 1-208): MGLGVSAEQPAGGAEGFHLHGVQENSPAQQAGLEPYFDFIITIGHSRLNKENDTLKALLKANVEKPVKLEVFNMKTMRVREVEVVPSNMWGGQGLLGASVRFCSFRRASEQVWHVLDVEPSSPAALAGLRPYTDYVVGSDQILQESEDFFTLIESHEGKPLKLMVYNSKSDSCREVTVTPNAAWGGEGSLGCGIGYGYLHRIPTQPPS

PEKVSNTTVV [IGSF5, Q9NSI5]
pKd [1]: 4.13 | pKd [2]: below the threshold | pKd [3]: below the threshold | pKd [4]: below the threshold | pKd [5]: below the threshold | pKd [6]: below the threshold | pKd [7]: below the threshold | pKd [8]: below the threshold | pKd [9]: below the threshold | pKd [10]: below the threshold | pKd [11]: below the threshold | pKd [12]: 3.67 | pKd [13]: 4.15 | pKd [14]: 3.76 | pKd [15]: below the threshold | pKd [16]: 4.04 | pKd [17]: below the threshold | pKd [18]: below the threshold | pKd [19]: below the threshold | pKd [20]: below the threshold | pKd [21]: below the threshold | pKd [22]: 3.73 | pKd [23]: below the threshold | pKd [24]: below the threshold | pKd [25]: below the threshold | pKd [26]: below the threshold | pKd [27]: below the threshold

EAVTVESTSL [SLC22A11, Q9NSA0]
pKd [1]: below the threshold | pKd [2]: 3.98 | pKd [3]: below the threshold | pKd [4]: below the threshold | pKd [5]: 3.54 | pKd [6]: below the threshold | pKd [7]: below the threshold | pKd [8]: below the threshold | pKd [9]: 4.24 | pKd [10]: below the threshold | pKd [11]: 4.43 | pKd [12]: 3.5 | pKd [13]: 3.65 | pKd [14]: 3.64 | pKd [15]: below the threshold | pKd [16]: below the threshold | pKd [17]: below the threshold | pKd [18]: below the threshold | pKd [19]: below the threshold | pKd [20]: below the threshold | pKd [21]: 5.45 | pKd [22]: below the threshold | pKd [23]: below the threshold | pKd [24]: 6.1 | pKd [25]: below the threshold | pKd [26]: below the threshold | pKd [27]: below the threshold

QQGLLPHSSC [TYRO3, Q06418]
pKd [1]: below the threshold | pKd [2]: below the threshold | pKd [3]: below the threshold | pKd [4]: below the threshold | pKd [5]: below the threshold | pKd [6]: below the threshold | pKd [7]: below the threshold | pKd [8]: below the threshold | pKd [9]: below the threshold | pKd [10]: below the threshold | pKd [11]: below the threshold | pKd [12]: below the threshold | pKd [13]: below the threshold | pKd [14]: below the threshold | pKd [15]: below the threshold | pKd [16]: below the threshold | pKd [17]: below the threshold | pKd [18]: below the threshold | pKd [19]: below the threshold | pKd [20]: below the threshold | pKd [21]: below the threshold | pKd [22]: below the threshold | pKd [23]: below the threshold | pKd [24]: below the threshold | pKd [25]: below the threshold | pKd [26]: below the threshold | pKd [27]: 3.72

Reference: article PMC9482650, “Quantitative fragmentomics allow affinity mapping of interactomes” (Nature Communications, 2022)
